Reference: the supplement of paper PMC12636428

Test system: Saccharomyces cerevisiae
Assay: transcriptional activation domain activity (GFP:mCherry ratio, weighted mean of sorted bins, harmonized to initial dataset scale) (arbitrary fluorescence ratio units); higher = stronger transcriptional activation
Details: beta-estradiol 1 µM; induction time 4 h
In short: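 Each value is an activation activity: the read-weighted mean of bin median fluorescence, averaged across barcodes, then mapped linearly to the initial dataset scale. The tiles, fused to an estradiol-inducible synthetic transcription factor, sat at the yeast URA3 locus in GFP-reporter diploids. Cells spent 4 hours at 30 °C in SC with 1 uM beta-estradiol before sorting into 8 GFP:mCherry bins, and tiles below 50 reads were removed.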

Sequence	transcriptional activation domain activity
SSGDERQKHQTKSSSKKSREKSKKAAGRNKAEEAKTNDGRKSTRKPSKRTRST	24900
SSGGDSGGDDTTTTTKKSRPRHHHLAHHHLHHLHHLHYLHHFHHHTHQHDDHL	22900
SSGGEKGGAKETEKTPKWYVDGIRYGRATDMKLVKHLISLRVHLSTASLVWIE	86800
SSGGGSTSESESESESEIEEDESKGEREGEGEKEKKKKKKKKGEEKAQHARRD	31700
SSHCLLENDMFVFFANCSVNQLAMGEDMHHILRLCYSAELIKVLLTYLGRSTF	56400
SSIRQMLKISLVRPLHMLLTEPVLFLFAVSLHPFRPRIYLMLEAIPLVFTRLY	40900
SSIVYLHPPLLHCLFLFPLLLLRLLAILAFSFLYLINLVLGTLGSCFSFFFRD	34600
SSKHDYKRSRRSKTKDEDDDDDDEDRKRRKRRKEREHSKKKEKEERRSVLTGK	30300
SSKISCIHHVALKPSSGRYKRVTIIFNIIKAKRHLVTNSLRLMGLLLAIALYI	53000
SSLMQYTLGATIGFVQSLEVRTQVLHLLVKLFQSLPQPDHFSIAQCYVYLNAP	57200
SSLSSSSFIKSHPGPDPFQQLSSAEHPNNHSSDDEHSGSQPLPLDSITIGIPP	53200
SSLTSIESMGSVMDESGEEEEEDVIYEVKRARTHSMEVQQARLVSWEGAGMKL	42300
SSNFQTIDNENNVKTPGNKLTDFFQQQSAGWIEGNSSNDDFFGWFDMNMEQGF	133000
SSNGEEQSINNKNDIDDNSAYRRNNFRNSSNSGSHTFQLSDLDLDVDMRMDSA	41100
SSNGRKSSKRRSRDKDEDEDEDEEDRKRRKRRRERERSKEKEERRSVLTGKKI	27200
SSPKKKGASKSDSAGRGNTAAAAKGRGKAKANAKGSPKKGGGGSARKRRKTAE	41100
SSPNTGGGLFGSGGTTSAFGANTTSGFGSTSNTGAFGAKTGAFGATTSAGGGL	35800
SSPSIQTASSVSTVLVVGSNDKTVKDVGEGLKTKLGVKGGGKGPRWSGKFIGV	19700
SSPSSQTSSSTSVVLVFGLEEKRVKEAGEQLKSKLGVKGGGKGPRWSGKFVGV	51600
SSPVVVSKIEDKNTEDKGADVKKTEESKKEEKTEVKQESKPEEKAEAKSEEKK	29300
SSQPTKKPTPTTTTTTTTTTTTTTTTTTTTTEKPHTTHHTTHTTTTTTTKKAE	36700

Sequence	transcriptional activation domain activity
SSQTPVLLWIIHFILPNLCILLYFTLQLIYLLRHHKSKWLIGDLVHSYCFYFI	81000
SSQVARLHQSWQHSIRVPFALVANYDHPLPWLLQHYVPLYMPALLFRFHILTF	50100
SSRKEDKSERRHRHRHRSRSRDRDQRHRRHHRSDSRERNQDGDGERRRRHRRS	26700
SSRRTKKSRRRRRGSSSSSSEAPSRKQRKAAASSSDEEQDRRARRKGKGKGRV	30800
SSRSRSVSRQPPSPHEEEQEDAEEREAEDGKGGGGEGEREHQSRESSPAPART	27100
SSRYDPVKSVFLPLDPMPLPRDFFFSFALILFCPSPFYTSLLSLYLISPLLFP	60800
SSRYIQTSTLTRLLLTYRQWIFVVVYSHLLLLDHSSQIWWRWMNIFFTLVIWS	62300
SSSAESSKASSSKKVASTKPKSKSAGTKAKPAAKKPAKKAAPKKKKPAKRAAK	34500
SSSDFVPVNFEADSLPYTPTTLDGLASLTSLEDLFSADDALASFDWSEWPWIY	156000
SSSEDDGKAGEGSSSSSDSEKARGRKKAKKSKEKGKGKATEGNSSSSSSDDDS	21100
SSSEDESDEEDEEGLGSDVEIHDQAEPAEDVPAGEVSRRFAVVNLDWDHVRAV	32200
SSSEEEVEVEVDKKTGVKRKRVKKQKVKKDVHNLVWSVVSQKKVFTDCWLGVL	91900
SSSEEGEDGKGKDKEKHGFRARAKSFTRRKSDAGSRAPSRTGRKRSDSTATAA	24500
SSSEEGSDGEEGDGEKDKDAKEKDGKDADGDVDMDADGKPKPKKAKPKKSTKK	31500
SSSGTPQAKSSSPSSTAASTKAPTSSATKPTSTGSCRKKRSNSTQRRSRTSRM	45400
SSSKKRKAVEVEEEEEEEEEEEEPVEEPEVEKEKEIVAAPVAKKAKVTAAATS	29300
SSSKSAADVAAGEGKKTEKAGEKKEGTAAAAEKKKIEEKPAREEKKEEEKVPV	24300
SSSKSKPIPDAKKRKSSASKPKSASSADRDTKRSGSRPESGKKSSTSSRSSKS	22900
SSSNQQTRTRDGPKKKKANRACLHCQKAHLTCDDSRPCQRCVRRGMANSCTEG	29900
SSSNSGGGGGVPEHILARVGYAVVSGLHFLKTKLNVIHRDVKPSNVLCSRAGD	42900
SSSRRRSQSPAAEASRSRRERSRDRSDAEDEGGSRSGSRRRRRRGSAEPREED	41600

Sequence	transcriptional activation domain activity
SSSSASSSSASARGRKTQAARSTKKRKRRDAVSSANKDEDNDSDASNDEDEDE	27500
SSSSEPIVLPVPVPVKRGRGRPKGAKNKPKLCEEKKQEEEEERERERERERGT	12200
SSSSKKQNQSADGERKKPKKTDGAEKGESVRRKSDSGGKSVKSEEKTTKGIQK	28800
SSSSQTSTSASVLLVFGSDERYVKAAGDLLKSRLNVKGGGKGTRWSGKYTGVW	31200
SSSSRGKGGKEKGKGKVAGEGDGDGEEEQGEQQQQQQTSLVEAVARARDACRL	27200
SSSSSRVACGQVVKCGSEVVATSNGAYPVQEGDSCSRARRQSTGSVVNRTTRP	26400
SSSSSSREDGEASDASSSSRDSRRRRRRSTSRDKRPAAESKAATEPAAAKPRN	30000
SSSSSSSSESGSESDSGSDDGSASGSGDNSSTSSESESESDSGSEVDEKNNKN	33900
SSSSTPSAFSSATPSSLFGSGASSTAKPFGSAASPSPFGAAKSSPSLFGSGGG	69900
SSSTVVLAFGTDEKKIKEVGDALKTKLSVKGGGKGPRWSGKFAGVWKEDSAIE	< 6570
SSTDPTVEPDAPGGSEAEEPAKSETKESPAKKKVVEEEEEEEQKKAEPNGSSS	30700
SSTNPGTESAKPEKPKRAPRQKASSKKADSKPKRTTARSKKAVKLAAEKLLSP	15600
SSTWFEPLENIISSASSSSIGSPIEDQFISSNNEESALFPTDQFFSNPSSYSH	84600
SSVVLFVFFLLFLLFSLFFYPTWLLPCLIFLLNDYLLFFLLFFCRVSCSFAPL	45800
SSWIKWVFLFARYFPLLAGLCGRIIDSIVLYKHPIPIPLNALRIWYICQVLII	59300
STAARTHGSKRSRDEEDGEGEERAKKRSRSEERVNTTRETRATRATRATSARP	31100
STACILLILVRYLGLIALVLNIIGFFSHEFTMESCQYYWRFMPIMQCFASWAS	61800
STALRTWPGLMYLSMYNFRAIKSLVASLMLPNQQARDIIIVLLYSLLRIKSPA	65100
STARICQMYHWTGNVAIWTHCAILMHPHTIVLWHIWRWDSSWSQASYYFIFWI	37000
STARKPRKKKEAEKTVDGAEDEITEETQKPKRKASTKRTSRKTTTDKEETTAT	24200
STATESGLAARSKDQIFCIPVPGQPWVDVRLRTLSESINSLLLLATLIKRCPV	59300

Sequence	transcriptional activation domain activity
STDALLARLVGHLHINPVSQKLVVAFDKIATCLQEVRACIVQRILPFAQRYKQ	62400
STFGKYVHCRLLEGNTGMKIPQAAVIALIFRFLEKLVNTRLAVISRRWAMVTL	67000
STGGARKGSAAPSKTSSSNISGRDKEKSRSKEKLGSQSALAAGSTPAPKAAAA	47900
STGLKPQDPSSDGLRKLALLNILLSGEEDVVSTIPAQRLVFLVKHLLECLKSD	24800
STHRIRCRNAEEPGGRARCRLVVGRRAPAGARDEVPSHFSEEELVASVVGVVV	73000
STHSVSLLVVWALRRIRVNLVKLAGITYMVPFPLLLVLVMIGSSSYLSWIFWI	64900
STIHNLAELVFLEELCGFCCFSMRFVVFLDLFGTIILPATCVYIGYLIYVIAT	44600
STIHNLFEVVLLPDLCGFCCFSMRFVVLVDLVGTLTLPVTVVYLIYLIYVIAS	54400
STKVLLRVFIPVAGYFWISLNYSLVSLAFHVKFNNYFGNIGFFIWWMLNWLTM	57300
STLQLASSFDITVNGPPVLCQGISITACASSSLVVALSWISCMIMLMYFFSLL	52800
STLVFLKLYSSLMLGTCLTSILCFSLPDFFPGKRGFAIGLCLYHSICSTVLFQ	63900
STMHSNIGYIATLCLNLTLLLPLKDHPMVNNYVLVLVNSYWVLTGIWWFIFQQ	35000
STPAAKPTPEPGQQPRKRGRPRIIRDDPPEGGGPPAAKKAKRGRKPKVVAPPA	27400
STPAPTTAAGGKKEAEKPEEKSEEKPEEKPAEKPAEKPAEKPAEVKPEEKAIQ	25400
STPSAFGAQPTQTTGAFGQPAQTSAFGAQPATGGFGNTGSAFGQARPSAFGST	16900
STQCSCEDESCPCVNCLIHRSEEELNSYIQQSGVPLTNIGEAQITDKMMDYLD	56900
STRNYKLYIGNTVFFCGGRFLTSRAFWAFGLSLFLINMPAILFIIFSCPWLWY	55900
STSIRWEIFYARFFIMMLFYTIVGLFLTIACFSLRYHLFIWTVFSPKLLFFFV	48800
STTKSICYVLRHLMITYVFYLSATGIDDLTVLIGNHSHNMIRTIVRSALWISY	39900
STTLPAVDNNNLFDAVASPLADPLCDDIAGNSLPFDNSIDLDNWRNPEAQSGL	71400
